Reference: patent US20100272709A1 (GENERAL HOSPITAL, published 2010)
One block for each molecule: values may come before it.

Tests used:
[1] = target: mouse monoclonal anti-dynamin GTPase antibody (Stressgene), recognizes the N-terminal GTPase domain; test: FLIM/FRET in fixed podocytes; lifetime of donor GTPase-a488 with acceptor DAM-a568; + control
[2] = target: mouse monoclonal anti-dynamin GTPase antibody (Stressgene), recognizes the N-terminal GTPase domain; test: FLIM/FRET in fixed podocytes; lifetime of donor GTPase-Alexa488 with acceptor DAM-Alexa568; + control
[3] = target: wild type dynamin (dynWT; recombinant dynamin 1) (UniProt Q05193)
[4] = target: dynK44A (dominant-negative dynamin mutant that cannot bind GTP) (UniProt Q05193); test: FLIM/FRET in fixed podocytes treated with cytochalasin D; donor GTPase-a488, acceptor Hudy1-a568; self-assembly
[5] = target: dynK44A (dominant-negative dynamin mutant that cannot bind GTP) (UniProt Q05193); test: FLIM/FRET in fixed podocytes; donor GTPase-a488, acceptor Hudy1-a568; self-assembly
[6] = target: mouse monoclonal anti-dynamin GTPase antibody (Stressgene), recognizes the N-terminal GTPase domain; test: FLIM/FRET in fixed podocytes; lifetime of donor GTPase-Alexa488 with acceptor GAR-Alexa568; - control
EYFP-dynK44A fusion = target: T1, EYFP-dynK44A fusion (UniProt Q05193); test: FLIM/FRET in live COS cells; lifetime of the ECFP donor; self-assembly
T1 sequence (looked up): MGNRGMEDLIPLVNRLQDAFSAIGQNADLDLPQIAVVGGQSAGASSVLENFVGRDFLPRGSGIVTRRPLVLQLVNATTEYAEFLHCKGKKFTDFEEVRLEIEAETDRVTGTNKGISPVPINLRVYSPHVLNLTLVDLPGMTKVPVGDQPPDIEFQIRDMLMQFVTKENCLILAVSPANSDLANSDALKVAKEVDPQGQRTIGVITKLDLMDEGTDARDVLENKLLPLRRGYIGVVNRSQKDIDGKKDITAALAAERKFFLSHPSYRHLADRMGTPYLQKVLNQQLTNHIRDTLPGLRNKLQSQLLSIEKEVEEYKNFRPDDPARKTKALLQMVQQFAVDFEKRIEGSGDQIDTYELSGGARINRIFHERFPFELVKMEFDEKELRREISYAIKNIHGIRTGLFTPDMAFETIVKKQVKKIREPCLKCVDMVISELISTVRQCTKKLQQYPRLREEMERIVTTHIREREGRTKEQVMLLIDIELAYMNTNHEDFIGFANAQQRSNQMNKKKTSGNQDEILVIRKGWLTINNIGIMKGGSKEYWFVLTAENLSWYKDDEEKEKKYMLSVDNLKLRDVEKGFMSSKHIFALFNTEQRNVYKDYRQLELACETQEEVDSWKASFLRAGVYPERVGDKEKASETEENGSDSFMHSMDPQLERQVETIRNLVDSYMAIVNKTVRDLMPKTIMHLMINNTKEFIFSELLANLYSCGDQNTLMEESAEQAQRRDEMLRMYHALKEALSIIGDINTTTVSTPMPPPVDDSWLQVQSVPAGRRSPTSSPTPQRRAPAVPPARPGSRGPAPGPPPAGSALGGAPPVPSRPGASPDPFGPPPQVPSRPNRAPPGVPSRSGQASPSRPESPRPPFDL

[7] = target: dynI690K (assembly incompetent dynamin mutant) (UniProt Q05193); test: FLIM/FRET in fixed podocytes treated with cytochalasin D; donor GTPase-a488, acceptor Hudy1-a568; self-assembly
[8] = target: dynI690K (assembly incompetent dynamin mutant) (UniProt Q05193); test: FLIM/FRET in fixed podocytes; donor GTPase-a488, acceptor Hudy1-a568; self-assembly
[9] = target: wild type dynamin (dynWT; recombinant dynamin 1), Q05193
[10] = target: dynK44A (dominant-negative dynamin mutant that cannot bind GTP), Q05193
[11] = target: T2, dynR725A (GTP-hydrolysis impaired dynamin mutant)
T2 chain: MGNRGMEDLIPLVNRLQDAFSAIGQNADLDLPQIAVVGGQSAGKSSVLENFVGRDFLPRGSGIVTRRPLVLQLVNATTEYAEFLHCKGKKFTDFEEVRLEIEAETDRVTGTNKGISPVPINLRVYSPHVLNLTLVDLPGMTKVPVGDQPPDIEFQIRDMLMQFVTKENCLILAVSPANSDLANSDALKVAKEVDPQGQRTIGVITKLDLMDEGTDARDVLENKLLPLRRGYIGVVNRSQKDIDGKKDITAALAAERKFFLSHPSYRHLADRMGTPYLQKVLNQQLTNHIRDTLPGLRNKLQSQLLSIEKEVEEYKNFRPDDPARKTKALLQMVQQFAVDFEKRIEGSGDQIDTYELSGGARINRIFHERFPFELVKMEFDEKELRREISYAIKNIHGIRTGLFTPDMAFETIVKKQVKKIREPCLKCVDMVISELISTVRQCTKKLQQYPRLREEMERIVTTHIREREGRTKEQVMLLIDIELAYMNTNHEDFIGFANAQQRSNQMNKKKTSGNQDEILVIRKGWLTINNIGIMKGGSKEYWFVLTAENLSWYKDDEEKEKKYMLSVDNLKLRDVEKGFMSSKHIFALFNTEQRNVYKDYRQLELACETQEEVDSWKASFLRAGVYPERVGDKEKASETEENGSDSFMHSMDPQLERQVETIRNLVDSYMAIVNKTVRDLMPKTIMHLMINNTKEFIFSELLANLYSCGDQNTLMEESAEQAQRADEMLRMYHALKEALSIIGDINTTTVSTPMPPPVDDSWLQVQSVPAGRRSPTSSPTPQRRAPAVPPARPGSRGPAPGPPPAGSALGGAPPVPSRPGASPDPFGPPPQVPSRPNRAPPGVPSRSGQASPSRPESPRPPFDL

Molecule: cathepsin B (CatB, Sigma)
cleavage of purified dynamin by CatB, Western blot [3]: incubation of dynamin with CatB generated p55 in a nucleotide-independent manner

Molecule: dynK44A (dominant-negative dynamin mutant that cannot bind GTP) (from UniProt Q05193 1-864) (enzyme)
Mean Lifetime (γ1) [4]: 2310 ps
Mean Lifetime (γ1) [5]: 2520 ps

Molecule: goat anti-rabbit-alexa568 (GARalexa568), negative control acceptor (antibody)
Mean Lifetime (γ1) [6]: 2420

Molecule: purified cathepsin L (commercial)
cleavage of purified dynamin by CatL at pH 7.0 with GTP, Western blot [3]: addition of GTP resulted in the generation of a prominent proteolytic fragment with a molecular weight of -40 kD (p40)
cleavage of purified dynamin by CatL at pH 7.0 with GTPγS, Western blot [3]: addition of GTPγS, (non-hydrolysable GTP analog) did not stimulate cleavage by CatL
cleavage of purified dynamin by CatL at pH 7.0 without nucleotide, Western blot [3]: CatL did not cause significant cleavage of purified dynamin at pH 7.0
cleavage of recombinant dynamin 1 by purified cathepsin L at pH 7.0 with GTP, Western blot with GTPase antibody [3]: addition of GTP in the assay resulted in significant cleavage of dynamin by cathepsin L
cleavage of recombinant dynamin 1 by purified cathepsin L at pH 7.0 with GTPγS [3]: Addition of GTPγS, non-hydrolyzable GTP homolog abolished dynamin cleavage by cathepsin L
cleavage of recombinant dynamin by CatL at pH 5.0 and 6.0, silver staining [3]: At pH 5.0 and 6.0, CatL was highly reactive towards recombinant dynamin, even in the absence of GTP
cleavage of recombinant dynamin by CatL at pH 5.0 and 6.0 with GTPγS, silver staining [3]: this proteolysis was completely inhibited by addition of GTP7S
cleavage of recombinant dynamin by cathepsin L at pH 5.0 and 6.0 [3]: at pH 5.0 and 6.0 cathepsin L potently proteolyzed recombinant dynamin

B3: endogenous mouse cathepsin L induced by LPS in podocytes and kidney (34 kD cytoplasmic short form) (protein)
chain: MRMIQLHNGEYSNGQHGFSMEMNAFGDMTNEEFRQVVNGYRHQKHKKGRLFQEPLMLKIPKSVDWREKGCVTPVKNQGQCGSCWAFSASGCLEGQMFLKTGKLISLSEQNLVDCSHAQGNQGCNGGLMDFAFQYIKENGGLDSEESYPYEAKDGSCKYRAEFAVANDTGFVDIPQQEKALMKAVATVGPISVAMDASHPSLQFYSSGIYYEPNCSSKNLDHGVLLVGYGYEGTDSNKNKYWLVKNSWGSEWGMEGYIKIAKDRDNHCGLATAASYPVVN
p40 proteolytic fragment in cytosol of LPS-treated podocytes expressing dynWT, Western blot [9]: Addition of specific cathepsin L inhibitor (Z-FF-FMK, Calbiochem), to the tissue cultured podocytes treated with LPS resulted specifically in the loss of p40
p40 proteolytic fragment in cytosol of LPS-treated podocytes expressing dynK44A, Western blot [10]: LPS treatment of podocytes expressing dynK44A, enzyme that cannot bind GTP, did not result in detectable levels of p40
p40 proteolytic fragment in cytosol of LPS-treated podocytes expressing dynR725A, Western blot [11]: LPS treatment of podocytes expressing dynR725A completely abolished presence of the p40
p40 proteolytic fragment in cytosol of podocytes expressing dynR725A before LPS, Western blot [11]: significant amount of p40 was present in cells expressing dynR725A prior to LPS treatment

Other lines, results leading:

Mean Lifetime (γ1) [1]: 1020
Mean Lifetime (γ1) [2]: 1020
Molecule: DAM-Alexa568 (secondary antibody used as positive control acceptor)

Mean Lifetime (γ1) ps (EYFP-dynK44A fusion): 1860 ps
B1: ECFP-dynK44A fusion (protein, UniProt Q05193 1-864, looked up, not shown: large carriers)
chain: MGNRGMEDLIPLVNRLQDAFSAIGQNADLDLPQIAVVGGQSAGASSVLENFVGRDFLPRGSGIVTRRPLVLQLVNATTEYAEFLHCKGKKFTDFEEVRLEIEAETDRVTGTNKGISPVPINLRVYSPHVLNLTLVDLPGMTKVPVGDQPPDIEFQIRDMLMQFVTKENCLILAVSPANSDLANSDALKVAKEVDPQGQRTIGVITKLDLMDEGTDARDVLENKLLPLRRGYIGVVNRSQKDIDGKKDITAALAAERKFFLSHPSYRHLADRMGTPYLQKVLNQQLTNHIRDTLPGLRNKLQSQLLSIEKEVEEYKNFRPDDPARKTKALLQMVQQFAVDFEKRIEGSGDQIDTYELSGGARINRIFHERFPFELVKMEFDEKELRREISYAIKNIHGIRTGLFTPDMAFETIVKKQVKKIREPCLKCVDMVISELISTVRQCTKKLQQYPRLREEMERIVTTHIREREGRTKEQVMLLIDIELAYMNTNHEDFIGFANAQQRSNQMNKKKTSGNQDEILVIRKGWLTINNIGIMKGGSKEYWFVLTAENLSWYKDDEEKEKKYMLSVDNLKLRDVEKGFMSSKHIFALFNTEQRNVYKDYRQLELACETQEEVDSWKASFLRAGVYPERVGDKEKASETEENGSDSFMHSMDPQLERQVETIRNLVDSYMAIVNKTVRDLMPKTIMHLMINNTKEFIFSELLANLYSCGDQNTLMEESAEQAQRRDEMLRMYHALKEALSIIGDINTTTVSTPMPPPVDDSWLQVQSVPAGRRSPTSSPTPQRRAPAVPPARPGSRGPAPGPPPAGSALGGAPPVPSRPGASPDPFGPPPQVPSRPNRAPPGVPSRSGQASPSRPESPRPPFDL

Mean Lifetime (γ1) [7]: 2430 ps
Mean Lifetime (γ1) [8]: 2360 ps
B2: dynI690K (assembly incompetent dynamin mutant) (enzyme, UniProt Q05193 1-864, looked up)
chain: MGNRGMEDLIPLVNRLQDAFSAIGQNADLDLPQIAVVGGQSAGKSSVLENFVGRDFLPRGSGIVTRRPLVLQLVNATTEYAEFLHCKGKKFTDFEEVRLEIEAETDRVTGTNKGISPVPINLRVYSPHVLNLTLVDLPGMTKVPVGDQPPDIEFQIRDMLMQFVTKENCLILAVSPANSDLANSDALKVAKEVDPQGQRTIGVITKLDLMDEGTDARDVLENKLLPLRRGYIGVVNRSQKDIDGKKDITAALAAERKFFLSHPSYRHLADRMGTPYLQKVLNQQLTNHIRDTLPGLRNKLQSQLLSIEKEVEEYKNFRPDDPARKTKALLQMVQQFAVDFEKRIEGSGDQIDTYELSGGARINRIFHERFPFELVKMEFDEKELRREISYAIKNIHGIRTGLFTPDMAFETIVKKQVKKIREPCLKCVDMVISELISTVRQCTKKLQQYPRLREEMERIVTTHIREREGRTKEQVMLLIDIELAYMNTNHEDFIGFANAQQRSNQMNKKKTSGNQDEILVIRKGWLTINNIGIMKGGSKEYWFVLTAENLSWYKDDEEKEKKYMLSVDNLKLRDVEKGFMSSKHIFALFNTEQRNVYKDYRQLELACETQEEVDSWKASFLRAGVYPERVGDKEKASETEENGSDSFMHSMDPQLERQVETIRNLVDSYMAIVNKTVRDLMPKTIMHLMKNNTKEFIFSELLANLYSCGDQNTLMEESAEQAQRRDEMLRMYHALKEALSIIGDINTTTVSTPMPPPVDDSWLQVQSVPAGRRSPTSSPTPQRRAPAVPPARPGSRGPAPGPPPAGSALGGAPPVPSRPGASPDPFGPPPQVPSRPNRAPPGVPSRSGQASPSRPESPRPPFDL
